# Entries after “also recorded” stand apart in the source; their conditions may differ.
# Columns and labels:
# [1] = system: Normal human epidermal keratinocytes (KC); experiment: Cell spreading by F-actin staining, keratinocytes; type: cell-based; settings: 3 h adhesion
# Experimental: Cells were harvested at passage 3-8, seeded at 3500/cm^2 and allowed to adhere onto films for 20 min, 1 or 3 hours in chamber slides. After gentle washing, cells were fixed with 4% paraformaldehyde, permeabilized with 0.1% Triton X-100 in PBS, and blocked with 1% bovine serum albumin (BSA, AppliChem) in PBS. Secondary antibody was AlexaFlour488 goat anti mouse IgG (H+L), cross adsorbed (Invitrogen), used at 1:500. Phalloidin-AlexaFluor594 (Life Technologies) were used at 1:40 to detect filamentous actin. DAPI was used for nuclear staining. Slides were mounted in Fluorescence mounting medium (Dako, Copenhagen). The stained cells were analyzed using an inverted microscope (Nikon Eclipse Ti) at 4× and 10× magnification. Excitation at 563/45 nm and detection at 625/50 nm was used for red fluorescence, whereas excitation with 387/11 nm and detection at 447/60 nm was used to monitor blue fluorescence. By staining for F-actin, cell spreading and formation of stress fibers in KC after 3 h adhesion were investigated (FIG. 6).
# [2] = system: primary keratinocytes (NHEK); experiment: Cell viability analysis with Alamar Blue; type: cell-based, human; settings: seeding 3 500 cells/cm^2, day 3 and day 6
# Experimental: For microscopic studies, the proteins were casted as films in chamber glass slides (LabTekII). For Alamar blue experiments, where whole well coverage is desired, the cell culture wells were coated with a covering protein solution of 0.3 mg/ml for 2 h before the liquid was removed. Films and coated surfaces were allowed to dry over night at 25° C. and 30% rh under sterile conditions, then washed twice with sterile 20 mM phosphate buffer, pH 7.4, and pre-incubated with complete cell culture medium for 1 h at 37° C. with 5% CO2 before cell seeding.
# Cell growth of primary keratinocytes (NHEK) after initial low seeding density 3 500 cells/cm^2 on wells coated with films of WT-silk (SEQ ID NO: 2) or FNCC-silk (SEQ ID NO: 13) in 96-well plates was monitored with Alamar Blue cell viability assay (Molecular Probes) every third day during the culture period. After 4 h incubation with Alamar blue (diluted 1:10 in cell culture medium), fluorescence intensity of 90 μL supernatants from the cultures was measured with a fluorescence plate reader (CLARIOstar, BMG Labtech) using excitation at 544 nm and emission at 595 nm. Two independent experiments were performed where films were analysed in hexaplicates. Fluorescence intensities, correlating the number of living cells in each well, were plotted over time to yield growth profiles of cells seeded on silk with different cell binding motifs.
# [3] = system: Normal human epidermal keratinocytes (KC); experiment: Formation of focal adhesions (F-actin/vinculin staining), keratinocytes; type: cell-based
# Experimental: Cells were harvested at passage 3-8, seeded at 3500/cm^2 and allowed to adhere onto films for 20 min, 1 or 3 hours in chamber slides. After gentle washing, cells were fixed with 4% paraformaldehyde, permeabilized with 0.1% Triton X-100 in PBS, and blocked with 1% bovine serum albumin (BSA, AppliChem) in PBS.
# Primary antibody were used at the following concentrations in 1% BSA: mouse anti human vinculin (Sigma V9131) at 9.5 μg/ml, mouse-anti human beta1-integrin (activated conformation, clone HUTS-4) at 3.3 μg/mL, or mouse-anti human alpha5-integrin (ligand bound conformation, clone SNAKA-51) at 2.5 μg/mL, both Millipore.
# Secondary antibody was AlexaFlour488 goat anti mouse IgG (H+L), cross adsorbed (Invitrogen), used at 1:500. Phalloidin-AlexaFluor594 (Life Technologies) were used at 1:40 to detect filamentous actin. DAPI was used for nuclear staining. Slides were mounted in Fluorescence mounting medium (Dako, Copenhagen).
# For microscopic analysis of cell adhesion (formation of focal adhesions and stress fibers), a confocal microscope was used (Carl Zeiss LSM 710) at 10× and 63× magnification.
# Quality of focal adhesions were graded from 1-4 regarding presence of small and dim focal adhesion (=1p), small and distinct focal adhesions (=2p), abundant focal adhesions (=3p) and large and bright focal adhesions (=4p), and multiplied with the portion of positive cells expressing this specific type of focal adhesions (0-4, where 0≈none of, 1≈one fourth of, 2≈half of, 3≈three fourths of, and 4≈all of the focal adhesion-positive cells.)
# Formation of focal adhesions within the cells was analyzed after 3 h by staining for F-actin in combination with vinculin, which is one of the major components of the focal adhesion complex. Co-staining of F-actin and vinculin is thus a sign of integrin-involved, well established binding of cells to the underlying substrate. Focal adhesions appear as yellow-greenish elongations of the F-actin filaments, often situated close to the cell membrane.
# The results from the analysis of formation and characterization of focal adhesions in KC after adherence for 3 h onto films of WT-silk (SEQ ID NO: 2) or silk functionalized with FNCC (SEQ ID NO: 13), FNVS (SEQ ID NO: 15), FNSS (SEQ ID NO: 14) or RGD (SEQ ID NO: 16) is presented in FIG. 7. Slides were scanned with a confocal microscope at 10× for overview (FIG. 7a) and at 63× for details (FIG. 7b). Two types of grading of the focal adhesions in the cells were performed.
molecule,measurement,setting,value
"FNCC-silk: recombinant spider silk protein 4RepCT with N-terminal cysteine-looped RGD motif CTGRGDSPAC (SEQ ID NO: 10) (protein, cyclic disulfide loop; Fusion protein; DISULFID (5)..(14)) GPNSCTGRGDSPACGSASGQGGYGGLGQGGYGQGAGSSAAAAAAAAAAAAGGQGGQGQGGYGQGSGGSAAAAAAAAAAAAAAAGRGQGGYGQGSGGNAAAAAAAAAAAAAAAGQGGQGGYGRQSQGAGSAAAAAAAAAAAAAAGSGQGGYGGQGQGGYGQSSASASAAASAASTVANSVSRLSSPSAVSRVSSAVSSLVSNGQVNMAALPNIISNISSSVSASAPGASGCEVIVQALLEVITALVQIVSSSSVGYINPSAVNQITNVVANAMAQVMG",cell morphology (F-actin),[1],most cells had a nice spread-out morphology with distinct actin filaments
same,spreading of KC (total cell area in 4× micrographs),[1]; seeding 3 500/cm^2,significantly increased compared to FNSS-silk
same,spreading of KC (total cell area in 4× micrographs),"[1]; seeding 3 500/cm^2, listed as FNCC",significantly increased spreading of KC compared to RGD-film (p<0.05) and WT-film (p<0.001)
same,level of viable cells (Alamar Blue fluorescence),[2],increased level of viable cells on FNCC-silk compared to WT-silk
same,time after seeding at which prominent focal adhesions appeared,[3],20 min
same,percentage of cells exhibiting focal adhesions,"[3]; 3 h adherence, 10× magnification","significant increase in percentage of cells expressing focal adhesions on FNCC-silk, compared to RGD and WT"
same,quality (grading) of focal adhesions,"[3]; 3 h adherence, 63× magnification",tendency of more prominent focal adhesions in cells attached to FNCC-silk compared to the other silk types; also recorded: almost only prominent focal adhesions

# Reference: patent US10662230B2, “Cyclic RGD cell-binding motif and uses thereof” (Spiber Technologies AB, priority 2015, dated 2020)
